# From publication doi:10.1101/2024.08.08.606885
# What was measured:
# Experiment in all cases: BLI; […]; 10x kinetics buffer, […]; global fit, 1:1 binding model; […]
# [1] = target: SARS-CoV-2 BA.5 RBD (SARS-CoV-2) (UniProt P0DTC2)
# [2] = target: SARS-CoV-2 BA.2.86 RBD (SARS-CoV-2) (UniProt P0DTC2)
# [3] = target: SARS-CoV-2 Delta RBD (SARS-CoV-2) (UniProt P0DTC2)
# [4] = target: SARS-CoV-2 XBB.1.5 RBD (SARS-CoV-2) (UniProt P0DTC2)
# [5] = target: SARS-CoV-2 BA.2.12.1 RBD (SARS-CoV-2) (UniProt P0DTC2)
# [6] = target: SARS-CoV-2 Wuhan-Hu-1 RBD (SARS-CoV-2) (UniProt P0DTC2)
# [7] = target: SARS-CoV-2 BQ.1.1 RBD (SARS-CoV-2) (UniProt P0DTC2)
# [8] = target: SARS-CoV-2 BA.2.75.2 RBD (SARS-CoV-2) (UniProt P0DTC2)
substance,measurement,setting,value
TRI2-2 homotrimeric miniprotein inhibitor (designed binder),Kd,[1],0.0306 nM
same,koff,[1],9.92e-06 s⁻¹
same,kon,[1],325000 M⁻¹ s⁻¹
same,Kd,[2],0.388 nM
same,koff,[2],0.000131 s⁻¹
same,kon,[2],339000 M⁻¹ s⁻¹
same,Kd,[3],1.14 pM
same,koff,[3],2.95e-07 s⁻¹
same,kon,[3],259000 M⁻¹ s⁻¹
same,Kd,[4],0.658 nM
same,koff,[4],0.000105 s⁻¹
same,kon,[4],160000 M⁻¹ s⁻¹
same,Kd,[5],0.851 nM
same,koff,[5],0.000117 s⁻¹
same,kon,[5],137000 M⁻¹ s⁻¹
same,Kd,[6],1.21 pM
same,koff,[6],3.46e-07 s⁻¹
same,kon,[6],286000 M⁻¹ s⁻¹
same,Kd,[7],0.21 nM
same,koff,[7],3.36e-05 s⁻¹
same,kon,[7],160000 M⁻¹ s⁻¹
same,Kd,[8],0.542 nM
same,koff,[8],8.93e-05 s⁻¹
same,kon,[8],165000 M⁻¹ s⁻¹
